In PMC6212772:

Tests used:
[1] = target: T1, GST-ZBTB24 zinc finger domain (UniProt O43167 294-512); assay: EMSA
[2] = target: T1, GST-ZBTB24 zinc finger domain; assay: EMSA; remark: listed apart in the source
[3] = target: T1, GST-ZBTB24 zinc finger domain; assay: competition

T1 sequence (O43167 294-512): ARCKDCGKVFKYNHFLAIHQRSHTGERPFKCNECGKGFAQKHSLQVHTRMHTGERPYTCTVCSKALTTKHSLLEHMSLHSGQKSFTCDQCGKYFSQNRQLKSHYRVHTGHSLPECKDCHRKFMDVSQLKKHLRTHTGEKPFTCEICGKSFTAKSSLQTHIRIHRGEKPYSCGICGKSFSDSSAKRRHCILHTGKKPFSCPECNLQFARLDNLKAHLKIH

| Binder | binding result [1] | other results |
| --- | --- | --- |
| CDCA7 outside promoter motif (dsDNA) DNA 1: GGGTGCTGGACGCAGGCGGGCGCGGGCCGACCCTCTCCAA DNA 2: TTGGAGAGGGTCGGCCCGCGCCCGCCTGCGTCCAGCACCC | no binding | – |
| CDCA7 promoter (dsDNA) DNA 1: GGCCGTTACCACAGCTTGCAGGACCTGTGTCCCAACGCGG DNA 2: CCGCGTTGGGACACAGGTCCTGCAAGCTGTGGTAACGGCC | binds | – |
| CAMKMT promoter wt (dsDNA) DNA 1: GGGAAGAAGTTGGCAGGTCCTGGCAGGGGACGAGCTGCGGC DNA 2: GCCGCAGCTCGTCCCCTGCCAGGACCTGCCAACTTCTTCCC | – | binding result [2]: binds |
| CAMKMT promoter mut2 (dsDNA) DNA 1: GGGAAGAAGTTGGCAGATACTGGCAGTGGACGAGCTGCGGC DNA 2: GCCGCAGCTCGTCCACTGCCAGTATCTGCCAACTTCTTCCC | – | binding result [3]: no binding |
| CAMKMT promoter mut1 (dsDNA) DNA 1: GGGAAGAAGTTGGCAGGTACTGGCAGGGGACGAGCTGCGGC DNA 2: GCCGCAGCTCGTCCCCTGCCAGTACCTGCCAACTTCTTCCC | – | binding result [3]: no binding |
| OSTC promoter (dsDNA) DNA 1: GTTAGAAGTCCCGCAGGTCCTTGAAGGTACACAAATCACC DNA 2: GGTGATTTGTGTACCTTCAAGGACCTGCGGGACTTCTAAC | binds | – |
| GAPDH promoter (dsDNA) DNA 1: GAGCCTGGCGGGAGGCGGGGTCCGAGTCACCGCCTGCCGC DNA 2: GCGGCAGGCGGTGACTCGGACCCCGCCTCCCGCCAGGCTC | no binding | – |
